This is an account of results in patent US20250277003A1 (OSAKA UNIVERSITY, published 2025).

The target in one assay is BtCoV BM48-31 spike RBD (BtCoV BM48-31). Kind of assay: bead flow cytometry.
A further assay concerns the target WIV1-CoV spike RBD (WIV1-CoV). Kind of assay: bead flow cytometry.

B1: mAb CR3022 (antibody, V domains shown)
VH: QMQLVQSGTEVKKPGESLKISCKGSGYGFITYWIGWVRQMPGKGLEWMGIIYPGDSETRYSPSFQGQVTISADKSINTAYLQWSSLKASDTAIYYCAGGSGISTPMDVWGQGTTVTVSS
VL: not shown
For the molecule B1, the gMFI amounted to 72 in the assay with BtCoV BM48-31 spike RBD and 22300 with WIV1-CoV spike RBD.
